For one substance, reduction of Gq activity, percent of wild-type CTF1 and Gq activity, percent of wild-type CTF1 (% of wild-type CTF1) results are on record in article PMC12830901.

What all share (experiment): split reporter (BiFC, NanoBiT); receptor-SmBiT and LgBiT-mini-G, LgBiT-mini-GΔα5 or LgBiT-β-arrestin transiently co-transfected in HEK293T; live cells 48 h after transfection; NanoBiT PPI system (Promega), luminescence normalised by the expression of both constructs; in the mutant and ΔHA panels the mini-GΔα5 signal was subtracted and results given as a percentage of the reference construct

Assay [1] has as its target ADGRL4-CTF1 I411A (human) (UniProt Q9HBW9).
In assay [2] the target is ADGRL4-CTF1 L412A (human) (UniProt Q9HBW9).
Assay [3] concerns the target ADGRL4-CTF1 F409A (human) (UniProt Q9HBW9).
Assay [4] deals with ADGRL4-CTF1 H408A (human) (UniProt Q9HBW9).
In assay [5] the target is ADGRL4-CTF1 S414A (human) (UniProt Q9HBW9).

Consider LgBiT-mini-Gq (mini-Gs/q version 70), for which the reduction of Gq activity, percent of wild-type CTF1 in assay [1], in assay [2], in assay [4] and in assay [5] was greater than 50% in each case. In assay [3], this substance displayed a Gq activity, percent of wild-type CTF1 (% of wild-type CTF1) of 12.
